# Data taken from US5459256A, “Lipophilic, aminohydrolase-activated prodrugs” (priority 1991, dated 1995).
# B1: adenosine deaminase (adenosine aminohydrolase, EC 3.5.4.4) (Bos taurus) (protein)
# chain: MAQTPAFNKPKVELHVHLDGAIKPETILYYGRKRGIALPADTPEELQNIIGMDKPLSLPEFLAKFDYYMPAIAGCREAVKRIAYEFVEMKAKDGVVYVEVRYSPHLLANSKVEPIPWNQAEGDLTPDEVVSLVNQGLQEGERDFGVKVRSILCCMRHQPSWSSEVVELCKKYREQTVVAIDLAGDETIEGSSLFPGHVKAYAEAVKSGVHRTVHAGEVGSANVVKEAVDTLKTERLGHGYHTLEDATLYNRLRQENMHFEVCPWSSYLTGAWKPDTEHPVVRFKNDQVNYSLNTDDPLIFKSTLDTDYQMTKNEMGFTEEEFKRLNINAAKSSFLPEDEKKELLDLLYKAYGMPSPASAEQCL
# What was measured:
# Test in all cases: purified protein, by the assay type
# Conditions in all cases: other: pH 7.4 and 37° C.
# [1] = substrate: CNc1ncnc2c1ncn2[C@@H]1O[C@H](CO)C[C@@H]1F
# Method: (§1) Deamination of dideoxyadenosine analogues by adenosine deaminase. Hydrolysis kinetics and 2'-F-dd-ara-I formation during the incubation of 50 μM N^6 -CH3 -2'-F-dd-ara-A (1f) with 0.7 units/mL of adenosine deaminase at 37° C. A unit of adenosine deaminase is the amount of enzyme which hydrolyzes a standard substrate (e.g., adenosine) at the rate of 1.0 μmole/min at 25° C. and pH 7.5. […] Insert: Adenosine deaminase hydrolysis kinetics for 50 μM ddA and 2'-F-dd-ara-A. The hydrolysis curve for ddA has been extrapolated from kinetics obtained with 0.07 units/mL of adenosine deaminase under identical conditions.
# (§2) A 50 μl aliquot of a 10 mg/ml suspension of adenosine deaminase (adenosine aminohydrolase, EC 3.5.4.4) from calf intestinal mucosa was centrifuged at 600×g for 3 min. The residue remaining after removal of the (NH4)2 SO4 supernatant was dissolved in 0.5 ml pH 7.4 tris(hydroxymethyl)-aminomethane (Tris) buffer to give an enzyme solution of 1 mg/ml (274 units/ml). […]
# (§3) Enzymatic Deamination of Adenosine Analogues. […] The decrease in substrate concentration was monitored by HPLC analysis of the resultant ultrafiltrate (see below). The ability of 2'-deoxycoformycin to inhibit deamination under the above conditions was evaluated by adding 2 μL of 1.0 mM inhibitor to diluted substrate solutions at the time of equilibration. […] Initial hydrolysis rates for each substrate concentration were measured through linear least-squares curve fitting of the concentration versus time data for reaction of the first 10% of substrate. KM and vmax values for each substrate were then determined from a graphical lineweaver-Burke plot of these initial rates (FIG. 1). […]
# (§4) Concentrations of dideoxynucleosides were measured by the HPLC analysis of 100 μL aliquots of ultrafiltered samples. […] Dideoxynucleosides and deamination products were detected at the appropriate wavelength of maximum absorption with a Gilson 116 variable wavelength detector. […] Peak areas and peak heights were measured simultaneously on a Spectra-Physics SP4200 computing integrator.
# [2] = substrate: Nc1ncnc2c1ncn2[C@@H]1O[C@H](CO)C[C@@H]1F
# [3] = substrate: Nc1ncnc2c1ncn2[C@H]1CC[C@@H](CO)O1
# Method: as §1, §2, §3, §4
# [4] = substrate: OC[C@@H]1C[C@H](F)[C@H](n2cnc3c(Cl)ncnc32)O1
# Method: as §1, §2, §3, §4
protein,measurement,setting,value
B1,Km,[1],110 µM
same,Km,[2],330 µM
same,Km,[3],14 µM
same,Km,[4],7500 µM
